The text below walks through data of the supplement of paper PMC12042874.

± gives the uncertainty stated by the source.

A short description of the series: amyloid nucleation score (Sup35N fusion, yeast selection) (log enrichment); library NNK1; higher = more nucleation; inactive = no reads after selection. Summed up:
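Peptides of 20 random codons, each fused to Sup35N, were expressed in psi-negative yeast. Cells were induced with 100 μM copper sulfate for 24 hours and grown 7 days at 30°C on medium lacking adenine and uracil, and plasmid inserts before and after selection were Illumina-sequenced. Nucleation scores are DiMSum log enrichments of output over input reads, centred on the mode score of non-aggregating sequences, and sequences under 100 input reads were excluded.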
As for SGINLLFVFS, the amyloid nucleation score was found to be 2.95 ± 0.25.

For the substance SGKPYLLGCTFSSVTLCPQV, the amyloid nucleation score was -0.227 ± 0.38.

SGKVVNPCMNDSDLVLNRIW showed an amyloid nucleation score of -0.011 ± 0.23. As to SGLLS, the amyloid nucleation score was -1.12 ± 0.65. To SGQPMIPGTCDNWNWRDYFT belongs 6.04 ± 0.09; to SGSALYLCAISLRVSTEEKP, -0.178 ± 0.85; to SGSINENVKYSDTLVWLWKM, 4.92 ± 0.055. In turn, SGTFLTFPYFIFCNVMICMS had an amyloid nucleation score of 6.969 ± 0.049. As for SHEFLSSVYQSVLIVSNF, the figure is -0.508 ± 0.58; as for SHERLNQCSNFSSWQNRGGL, -0.588 ± 0.73; as for SHFGNPLKIPVFNRWTQHKA, -0.263 ± 0.49. As for SHFLF, the figure is 0.93 ± 0.7; as for SHLCLAMVVRGV, 0.507 ± 0.56; as for SHLGVMLNIRYNKSPQTTAP, 2.1 ± 0.41.

SHLTRDSILRVRVCWTNCVQ came in with an amyloid nucleation score of -0.026 ± 0.59. To SHPRTYPWDSTDFVWLS belongs -0.549 ± 1.2. As for SHQVVGGLLTYSVWCKCLGC, the figure is 3.92 ± 0.059. To SHRWWIM belongs -0.597 ± 1.1; to SHSFPGMWTDDTSALASREK, 0.306 ± 0.59; to SHSGFTCTCWCMALLYGVAS, 1.22 ± 0.63.

SHSLHLESSASSLTR had an amyloid nucleation score of -1 ± 0.51. As for SHTRQ, the figure is -0.223 ± 0.91; as for SHYSSIVYGAMEDSGL, -1.6 ± 2.4. In the case of SIFIAGWGCISYKRRVACFR, the amyloid nucleation score result was “inactive”. To SIFSSSEVGVQLYTMGG belongs 0.91 ± 0.62. Substance SIFVG showed an amyloid nucleation score of 0.353 ± 1.2.

SIHVVYNPTFQMNCYTFRLS registered an amyloid nucleation score of 7.888 ± 0.05. As for SILETLGLAFVK, the figure is -0.41 ± 0.57; as for SILGRWDHDLWNLFGARSLV, -0.148 ± 0.89. In turn, SILQFALLMNSRDLVHRGYF registered an amyloid nucleation score of 3.38 ± 0.17.

SIMLADYPIHLVSNTPRMVL showed an amyloid nucleation score of 0.809 ± 0.82.

Substance SINLCGLWKVYYILAFMW displayed an amyloid nucleation score of -2.26 ± 2.4.

For the substance SIPIVL, the amyloid nucleation score worked out at 0.267 ± 0.35. As for SIRLHS, the figure is 2.65 ± 0.31. To SITMGQS belongs -0.546 ± 0.46. To SIVETAVVSKYVERSYGQEG belongs -0.437 ± 0.36.

SIVGWCICLREFSVRFSYAE yielded an amyloid nucleation score of 5.48 ± 0.075. In the case of SIWCGRYIIMESVGTPLRSR, the amyloid nucleation score was found to be 0.438 ± 0.8.

SIWVIRPAAGKSEGSISNVQ yielded an amyloid nucleation score of 0.531 ± 0.5. As for SKDCNKWVRPRHGLYRFGGF, the figure is 0.071 ± 0.34; as for SKFNAIMNCDVIKRSLNCIN, 0.022 ± 0.3. As for SKLLHMEWNQELDPSLSLLS, the figure is -1.14 ± 0.66; as for SKLMRVVCVVISVAYTWNEE, 0.188 ± 0.32; as for SKSGLGYTGHLLVREREVVV, 0.474 ± 1.

SKSLKYICMYFQHTNSLASI showed an amyloid nucleation score of 0.241 ± 1.2. To SKSYVM belongs 0.468 ± 0.29.

In the case of SKVVGGESKVQ, the amyloid nucleation score was 1.05 ± 0.6. SLDLFSIKATRSDWSGFLRT: the amyloid nucleation score was -0.613 ± 0.94. For SLEWLESCFSDAHIHTAH, the amyloid nucleation score is -0.733 ± 1.9. As for SLFATGN, the entry is “inactive”; as for SLFKRILYHVSGFRYCCTSV, -1.01 ± 1. The substance SLFQYWDVRDVESTFSVCNC showed an amyloid nucleation score of 6.339 ± 0.047.

SLGLNMFGLLCSNFQSVRVK displayed an amyloid nucleation score of 0.129 ± 0.53. As for SLGVSDI, the figure is -1.16 ± 0.41; as for SLHCLMFVCSFRVSFEDWGE, 4.77 ± 0.13; as for SLKDVPISCFNYMHC, 4.39 ± 0.094. SLKMEDFKKNSKMRMDFINH gave an amyloid nucleation score of 1.85 ± 0.19. SLLALLPLQYWVYRIKNLVH: the amyloid nucleation score was -0.057 ± 1.5. To SLLCWKLAVHQLGMIGNIYS belongs -0.452 ± 0.47; to SLLNRVGLWRRSSLCLMTGC, 0.538 ± 0.26. To SLLSAMDLPPFLSYRLSPRW belongs 0.059 ± 1.2; to SLLSFCQSSRVTESSMAYCT, “inactive”.

In turn, SLLTWFREYVDYTLYQWPGY yielded an amyloid nucleation score of -0.131 ± 0.76. As for SLNPALFTVSYPLVMLENDT, the figure is 0.19 ± 0.29; as for SLNSTFFCIEISVDDIEVLQ, -0.609 ± 0.52. To SLPSNHTVLWTVWMMVFGAR belongs -1.09 ± 0.96; to SLSFTEVGRNRLSWRSAHSK, -0.616 ± 1.7; to SLSNCTGKNVLVTLS, 0.428 ± 1.2. Consider SLSRCMIYDYR, for which the amyloid nucleation score result was “inactive”. As for SLSRLRHNSFWQRTFAMLVS, the entry is “inactive”. As for SLTDAEGSWLHRSWVKWNRC, the figure is -0.208 ± 0.62; as for SLVLVYGFWELYLW, 0.689 ± 0.84. As for SLVTDCYVPGFLYAMVIHAG, the figure is 1.01 ± 0.45; as for SLVYQYIVLCTV, -1.47 ± 1.2. On to SLWFTYCQ, for which the amyloid nucleation score was found to be 0.751 ± 0.38. As for SLYAQVCWRSVEFYPRLFPE, the figure is 2.26 ± 0.12. As for SLYLYMGWPSHWVESVLPYG, the figure is 0.043 ± 0.89; as for SLYVYISRFMTLMGCLTVNH, 0.575 ± 0.35; as for SMCNCDPSVALRSMY, -0.279 ± 0.25. As for SMDLLRDLSVDKWAFF, the figure is 0.133 ± 0.33; as for SMFGFTYIVGRMDGSIGWSL, 0.647 ± 0.22. On to SMFRAFKGYLWGNCSREAQR, for which the amyloid nucleation score came to 0.026 ± 0.25. To SMFRVYYSGGQLQ belongs 4.75 ± 0.058; to SMGQHHMGGWVYGRKAEKLS, -0.185 ± 0.37.

Substance SMIGCYMTF yielded an amyloid nucleation score of 0.073 ± 0.36. In turn, SMKWSLYLQCRIMYIQTDSR gave an amyloid nucleation score of 3.21 ± 0.12. To SMMSGCGTGVAPKAWSGDGW belongs 0.974 ± 0.62; to SMPCQWR, 0.503 ± 0.51.

SMQQVSTSVQKVMDAYHWGW gave an amyloid nucleation score of 0.554 ± 0.79. As for SMQSSVDYKRGAMTFI, the figure is 0.424 ± 0.69; as for SMRLGKTIAVLVINEHGMLQ, 2.17 ± 0.11; as for SMTLMWTTPSSYIAWI, -0.792 ± 0.48.

In turn, SMWKWDQKGKDNGTKNNKRL gave an amyloid nucleation score of -0.939 ± 0.8. To SMYFSHVSPFVWRSYCFLVC belongs “inactive”. To SNFMGQD belongs 0.733 ± 0.7; to SNGIQPMERI, -1.01 ± 1.7. To SNIQDCYRFEGLHKKTNENL belongs -0.684 ± 0.91.

Substance SNLLTRSPLMLSSIIMVMNC came in with an amyloid nucleation score of -0.133 ± 0.75. As for SNMTSRYYNCMVTWVRILVR, the figure is 1.19 ± 0.41; as for SNPSVNRHFVSSRGWLGKSN, -0.422 ± 1.4. As for SNRCSPDMESDVHSVKELYR, the figure is 0.762 ± 0.41; as for SNSRFMLHGWAGIWFIWSWG, 0.124 ± 0.5. As for SNVAVRTSCYTGARMYTRWW, the figure is 1.94 ± 0.19; as for SPFSGVL, 0.589 ± 0.25; as for SPHSLTFSLMVMVRKKMMRS, 0.012 ± 1.4. SPIMEKACVD gave an amyloid nucleation score of -0.053 ± 1.6.

For the substance SPKSLLKRLWEYARKNTVML, the amyloid nucleation score turned out to be 0.151 ± 0.49. SPPDVSNN registered an amyloid nucleation score of -0.169 ± 0.75. To SPPSLRNLNYIFAY belongs -0.948 ± 2.4.

Consider SQAAGSVY, for which the amyloid nucleation score came out at 0.026 ± 0.25.

As to SQEHCMVNTK, the amyloid nucleation score amounted to 0.112 ± 0.59. To SQFYVLVIWLSCALSMGSSI belongs -0.04 ± 0.45; to SQMTDYVFTL, 0.848 ± 0.85; to SQTSVPGGSDEAGAGVKQGF, 0.134 ± 0.56. To SRCCRYLKHVRSIGSVQVAS belongs 1.16 ± 0.32. SRCRNYYKVHVL: the amyloid nucleation score is -1.17 ± 1.7.

As for SRDVVSAGYKKCGYGMYCTK, the amyloid nucleation score is 1.11 ± 0.37. As for SRFHVKLRLYFGSNIARTSK, the figure is 6.618 ± 0.061; as for SRGHDVRLTACDADGGLGLC, -0.17 ± 0.46.

For the substance SRISMVMVLSLFSVKFRWNP, the amyloid nucleation score was 0.328 ± 0.24. As for SRLLMKRIYYCVYPKGTTKK, the entry is “inactive”. As for SRNNCSNRRDYHGIYSMRIS, the figure is 0.513 ± 0.79; as for SRRFYLTPELPVTHVCCVGK, 1.03 ± 0.62; as for SRRKQIVGKVSVFFEASRFV, -1.06 ± 1.2. As for SRVEWEDVYENVGGKGTSRE, the amyloid nucleation score was -0.087 ± 0.44. SRVNCYSSHSFSKYGRVGKS: the amyloid nucleation score is -0.004 ± 0.59. With SRVRVLASVSFMTVRMVFEV, the amyloid nucleation score is 0.436 ± 0.25.

On to SRWPAVVRTLFRSCKV, for which the amyloid nucleation score stood at 0.48 ± 0.65. As for SRYALLIYVLEDGCLAVLKP, the figure is 0.562 ± 1.2; as for SRYYNILWNKVCRVRDNH, “inactive”. For the substance SSAFSLRLFDLSLNYFEFDE, the amyloid nucleation score was -0.595 ± 0.68. As for SSCNRRSHKP, the figure is -0.471 ± 0.54; as for SSERGTWIMVARVQSVTNNV, “inactive”; as for SSEVRMTVVSLGPLMDRPNV, -0.243 ± 0.68. As for SSFQIRVSVLRRHCISGLIY, the figure is 1.01 ± 0.79; as for SSGDGRRAP, 0.335 ± 0.39; as for SSIRNVTAICINGSRLINVL, 1.1 ± 0.54. For SSLGIGFAPLISSFISC, the amyloid nucleation score was -0.429 ± 0.64.

SSLYETY: the amyloid nucleation score entry is “inactive”.
